Laboratory results from the supplement of paper PMC5998384.

What was measured:
HeLa Kyoto [1] = experiment: solubility change mitosis vs G1/S (difference of NP-40 vs SDS log2 ratios) (log2 ratio difference); higher = more soluble in mitosis
HeLa Kyoto [2] = experiment: solubility in G1/S (NP-40 vs SDS abundance) (log2 ratio); higher = more soluble; conditions: cell cycle stage: G1/S
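Throughout, for solubility change mitosis vs G1/S (difference of NP-40 vs SDS log2 ratios): synchronized HeLa Kyoto cells (double thymidine block for G1/S, nocodazole release for mitosis), protein amounts in NP-40 versus SDS lysates quantified by mass spectrometry, three biological replicates.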
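Throughout, for solubility in G1/S (NP-40 vs SDS abundance): HeLa Kyoto cells arrested at G1/S by double thymidine block, proteins quantified by TMT10plex mass spectrometry in mild NP-40 versus SDS extracts, three biological replicates.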

In the case of “MAALTPRKRKQDSLKCDSLLHFTENLFPSPNKKHCFYQNSDKNEENLHCSQQEHFVLSALKTTEINRLPSANQGSPFKSALSTVSFYNQNKWYLNPLERKLIKESRSTCLKTNDEDKSFPIVTEKMQGKPVCSKKNNKKPQKSLTAKYQPKYRHIKPVSRNSRNSKQNRVIYKPIVEKENNCHSAENNSNAPRVLSQKIKPQVTLQGGAAFFVRKKSSLRKSSLENEPSLGRTQKSKSEVIEDSDVETVSEKKTFATRQVPKCLVLEEKLKIGLLSASSKNKEKLIKDSSDDRVSSKEHKVDKNEAFSSEDSLGENKTISPKSTVYPIFSASSVNSKRSLGEEQFSVGSVNFMKQTNIQKNTNTRDTSKKTKDQLIIDAGQKHFGATVCKSCGMIYTASNPEDEMQHVQHHHRFLEGIKYVGWKKERVVAEFWDGKIVLVLPHDPSFAIKKVEDVQELVDNELGFQQVVPKCPNKIKTFLFISDEKRVVGCLIAEPIKQAFRVLSEPIGPESPSSTECPRAWQCSDVPEPAVCGISRIWVFRLKRRKRIARRLVDTLRNCFMFGCFLSTDEIAFSDPTPDGKLFATKYCNTPNFLVYNFNS [ESCO2]”, the “solubility change mitosis (log2)” value (HeLa Kyoto [1]) is reported as 0.997 and the “solubility in G1/S (log2)” value (HeLa Kyoto [2]) is reported as -0.994.
“MAAPSLLNWRRVSSFTGPVPRARHGHRAVAIRELMIIFGGGNEGIADELHVYNTATNQWFLPAVRGDIPPGCAAHGFVCDGTRILVFGGMVEYGRYSNELYELQASRWLWKKVKPHPPPSGLPPCPRLGHSFSLYGNKCYLFGGLANESEDSNNNVPRYLNDFYELELQHGSGVVGWSIPVTKGVVPSPRESHTAVIYCKKDSGSPKMYVFGGMCGARLDDLWQLDLETMSWSKPETKGTVPLPRSLHTASVIGNKMYIFGGWVPHKGENTETSPHDCEWRCTSSFSYLNLDTTEWTTLVSDSQEDKKNSRPRPRAGHCAVAIGTRLYFWSGRDGYKKALNSQVCCKDLWYLDTEKPPAPSQVQLIKATTNSFHVKWDEVSTVEGYLLQLSTDLPYQAASSDSSAAPNMQGVRMDPHRQGSNNIVPNSINDTINSTKTEQPATKETSMKNKPDFKALTDSNAILYPSLASNASNHNSHVVDMLRKNEGPHTSANVGVLSSCLDVRTVIPETSVSSTVSSTQTMVTQQTIKTESSSTNGAVVKDETSLTTFSTKSEVDETYALPATKISRVETHATATPFSKETPSNPVATVKAGERQWCDVGIFKNNTALVSQFYLLPKGKQSISKVGNADVPDYSLLKKQDLVPGTGYRFRVAAINGCGIGPFSKISEFKTCIPGFPGAPSAVRISKNVEGIHLSWEPPTSPSGNILEYSAYLAIRTAQIQDNPSQLVFMRIYCGLKTSCIVTAGQLANAHIDYTSRPAIVFRISAKNEKGYGPATQVRWLQGNNKKAPLN [HCFC2]” was tested, and the “solubility change mitosis (log2)” value (HeLa Kyoto [1]) was -0.0821 and the “solubility in G1/S (log2)” value (HeLa Kyoto [2]) was -0.228.
With “MAATLILEPAGRCCWDEPVRIAVRGLAPEQPVTLRASLRDEKGALFQAHARYRADTLGELDLERAPALGGSFAGLEPMGLLWALEPEKPLVRLVKRDVRTPLAVELEVLDGHDPDPGRLLCRVRHERYFLPPGVRREPVRAGRVRGTLFLPPEPGPFPGIVDMFGTGGGLLEYRASLLAGKGFAVMALAYYNYEDLPKTMETLHLEYFEEAVNYLLSHPEVKGPGVGLLGISKGGELCLSMASFLKGITAAVVINGSVANVGGTLRYKGETLPPVGVNRNRIKVTKDGYADIVDVLNSPLEGPDQKSFIPVERAESTFLFLVGQDDHNWKSEFYANEACKRLQAHGRRKPQIICYPETGHYIEPPYFPLCRASLHALVGSPIIWGGEPRAHAMAQVDAWKQLQTFFHKHLGGHEGTIPSKV [ACOT1]” the “solubility change mitosis (log2)” value (HeLa Kyoto [1]) was -0.000552 and the “solubility in G1/S (log2)” value (HeLa Kyoto [2]) was 0.138.
For “MAAVEAAAEPVTVVAAVGPKAKDEEEEEEEPLPPCEAVRWAPVGAVAEARPGATAFLEEATAEEPGAAPGSPPDSPGRTLRRLRAERRRLDSALLALSSHFAQVQFRLRQVVRGAPAEQQRLLRELEDFAFRGCPHVLGYEGPGDPASDEGDGLPGDRPWLRGEDQSEQEKQERLETQREKQKELILQLKTQLDDLETFAYQEGSYDSLPQSVVLERQRVIIDELIKKLDMNLNEDISSLSTEELRQRVDAAVAQIVNPARVKEQLVEQLKTQIRDLEMFINFIQDEVGSPLQTGGGHCECKAGGKTGNGCSRTGSSRTPPGNSKTKAEDVKKVRETGLHLMRRALAVLQIFAVSQFGCATGQIPPTLWQRVQADRDYSPLLKRLEVSVDRVKQLALRQQPHDHVITSANLQDLSLGGKDELTMAVRKELTVAVRDLLAHGLYASSPGMSLVMAPIACLLPAFSSAPEAMHPWELFVKYYHAKNGRAYVESPARKLSQSFALPVTGGTVVTPKQSLLTAIHMVLTEHDPFKRSADSELKALVCMALNEQRLVSWVNLICKSGSLIEPHYQPWSYMAHTGFESALNLLSRLSSLKFSLPVDLAVRQLKNIKDAF [RUNDC1]”, the “solubility change mitosis (log2)” value (HeLa Kyoto [1]) was -0.215 and the “solubility in G1/S (log2)” value (HeLa Kyoto [2]) was -0.124.
With “MADAAATAGAGGSGTRSGSKQSTNPADNYHLARRRTLQVVVSSLLTEAGFESAEKASVETLTEMLQSYISEIGRSAKSYCEHTARTQPTLSDIVVTLVEMGFNVDTLPAYAKRSQRMVITAPPVTNQPVTPKALTAGQNRPHPPHIPSHFPEFPDPHTYIKTPTYREPVSDYQVLREKAASQRRDVERALTRFMAKTGETQSLFKDDVSTFPLIAARPFTIPYLTALLPSELEMQQMEETDSSEQDEQTDTENLALHISMEDSGAEKENTSVLQQNPSLSGSRNGEENIIDNPYLRPVKKPKIRRKKSLS [TAF8]” the “solubility change mitosis (log2)” value (HeLa Kyoto [1]) was 0.0206 and the “solubility in G1/S (log2)” value (HeLa Kyoto [2]) was 0.116.
“MADSAELKQMVMSLRVSELQVLLGYAGRNKHGRKHELLTKALHLLKAGCSPAVQMKIKELYRRRFPQKIMTPADLSIPNVHSSPMPATLSPSTIPQLTYDGHPASSPLLPVSLLGPKHELELPHLTSALHPVHPDIKLQKLPFYDLLDELIKPTSLASDNSQRFRETCFAFALTPQQVQQISSSMDISGTKCDFTVQVQLRFCLSETSCPQEDHFPPNLCVKVNTKPCSLPGYLPPTKNGVEPKRPSRPINITSLVRLSTTVPNTIVVSWTAEIGRNYSMAVYLVKQLSSTVLLQRLRAKGIRNPDHSRALIKEKLTADPDSEIATTSLRVSLLCPLGKMRLTIPCRALTCSHLQCFDATLYIQMNEKKPTWVCPVCDKKAPYEHLIIDGLFMEILKYCTDCDEIQFKEDGTWAPMRSKKEVQEVSASYNGVDGCLSSTLEHQVASHHQSSNKNKKVEVIDLTIDSSSDEEEEEPSAKRTCPSLSPTSPLNNKGILSLPHQASPVSRTPSLPAVDTSYINTSLIQDYRHPFHMTPMPYDLQGLDFFPFLSGDNQHYNTSLLAAAAAAVSDDQDLLHSSRFFPYTSSQMFLDQLSAGGSTSLPTTNGSSSGSNSSLVSSNSLRESHSHTVTNRSSTDTASIFGIIPDIISLD [PIAS1]” was tested, and the “solubility change mitosis (log2)” value (HeLa Kyoto [1]) was 0.113 and the “solubility in G1/S (log2)” value (HeLa Kyoto [2]) was -0.461.
With “MADSERLSAPGCWAACTNFSRTRKGILLFAEIILCLVILICFSASTPGYSSLSVIEMILAAIFFVVYMCDLHTKIPFINWPWSDFFRTLIAAILYLITSIVVLVERGNHSKIVAGVLGLIATCLFGYDAYVTFPVRQPRHTAAPTDPADGPV [PLP2]” the “solubility change mitosis (log2)” value (HeLa Kyoto [1]) was -0.163 and the “solubility in G1/S (log2)” value (HeLa Kyoto [2]) was -0.0955.
With “MADSSGRGAGKPATGPTNSSSAKKKDKRVQGGRVIESRYLQYEKKTTQKAPAGDGSQTRGKMSEGGRKSSLLQKSKADSSGVGKGDLQSTLLEGHGTAPPDLDLSAINDKSIVKKTPQLAKTISKKPESTSFSAPRKKSPDLSEAMEMMESQTLLLTLLSVKMENNLAEFERRAEKNLLIMCKEKEKLQKKAHELKRRLLLSQRKRELADVLDAQIEMLSPFEAVATRFKEQYRTFATALDTTRHELPVRSIHLEGDGQQLLDALQHELVTTQRLLGELDVGDSEENVQVLDLLSELKDVTAKKDLELRRSFAQVLELSAEASKEAALANQEVWEETQGMAPPSRWYFNQDSACRESGGAPKNTPLSEDDNPGASSAPAQATFISPSEDFSSSSQAEVPPSLSRSGRDLS [HAUS8]” the “solubility change mitosis (log2)” value (HeLa Kyoto [1]) was 0.189 and the “solubility in G1/S (log2)” value (HeLa Kyoto [2]) was 0.514.
In the case of “MADVEDGEETCALASHSGSSGSKSGGDKMFSLKKWNAVAMWSWDVECDTCAICRVQVMDACLRCQAENKQEDCVVVWGECNHSFHNCCMSLWVKQNNRCPLCQQDWVVQRIGK [RNF7]”, the “solubility change mitosis (log2)” value (HeLa Kyoto [1]) is reported as -0.169 and the “solubility in G1/S (log2)” value (HeLa Kyoto [2]) is reported as -0.165.
For “MADWARAQSPGAVEEILDRENKRMADSLASKVTRLKSLALDIDRDAEDQNRYLDGMDSDFTSMTSLLTGSVKRFSTMARSGQDNRKLLCGMAVGLIVAFFILSYFLSRART [BET1L]”, the “solubility change mitosis (log2)” value (HeLa Kyoto [1]) was 0.0489 and the “solubility in G1/S (log2)” value (HeLa Kyoto [2]) was -0.104.
With “MAEAVERTDELVREYLLFRGFTHTLRQLDAEIKADKEKGFRVDKIVDQLQQLMQVYDLAALRDYWSYLERRLFSRLEDIYRPTIHKLKTSLFRFYLVYTIQTNRNDKAQEFFAKQATELQNQAEWKDWFVLPFLPSPDTNPTFATYFSRQWADTFIVSLHNFLSVLFQCMPVPVILNFDAECQRTNQVQEENEVLRQKLFALQAEIHRLKKEEQQPEEEEALVQHKLPPYVSNMDRLGDSELAMVCSQRNASLSQSPRVGFLSSLLPQSKKSPSRLSPAQGPPQPQSSAKKESFGGQGTKGKDPTSGAKDGKSLLSGLATGESGWSQHRQRRLQDHGKERKELFSTTTSQCAEKKPEASGPEAEPCPELHTEPVEPLTRASSAGPEGGGVRPEQPFIVLGQEEYGEHHSSIMHCRVDCSGRRVASLDVDGVIKVWSFNPIMQTKASSISKSPLLSLEWATKRDRLLLLGSGVGTVRLYDTEAKKNLCEININDNMPRILSLACSPNGASFVCSAAAPSLTSQVDFSAPDIGSKGMNQVPGRLLLWDTKTMKQQLQFSLDPEPIAINCTAFNHNGNLLVTGAADGVIRLFDMQQHECAMSWRAHYGEVYSVEFSYDENTVYSIGEDGKFIQWNIHKSGLKVSEYSLPSDATGPFVLSGYSGYKQVQVPRGRLFAFDSEGNYMLTCSATGGVIYKLGGDEKVLESCLSLGGHRAPVVTVDWSTAMDCGTCLTASMDGKIKLTTLLAHKA [WDR91]” the “solubility change mitosis (log2)” value (HeLa Kyoto [1]) was 0.0607 and the “solubility in G1/S (log2)” value (HeLa Kyoto [2]) was -0.122.
In the case of “MAEEVSTLMKATVLMRQPGRVQEIVGALRKGGGDRLQVISDFDMTLSRFAYNGKRCPSSYNILDNSKIISEECRKELTALLHHYYPIEIDPHRTVKEKLPHMVEWWTKAHNLLCQQKIQKFQIAQVVRESNAMLREGYKTFFNTLYHNNIPLFIFSAGIGDILEEIIRQMKVFHPNIHIVSNYMDFNEDGFLQGFKGQLIHTYNKNSSACENSGYFQQLEGKTNVILLGDSIGDLTMADGVPGVQNILKIGFLNDKVEERRERYMDSYDIVLEKDETLDVVNGLLQHILCQGVQLEMQGP [NT5C3B]”, the “solubility change mitosis (log2)” value (HeLa Kyoto [1]) is reported as -0.136 and the “solubility in G1/S (log2)” value (HeLa Kyoto [2]) is reported as 0.00588.
For “MAEIIQERIEDRLPELEQLERIGLFSHAEIKAIIKKASDLEYKIQRRTLFKEDFINYVQYEINLLELIQRRRTRIGYSFKKDEIENSIVHRVQGVFQRASAKWKDDVQLWLSYVAFCKKWATKTRLSKVFSAMLAIHSNKPALWIMAAKWEMEDRLSSESARQLFLRALRFHPECPKLYKEYFRMELMHAEKLRKEKEEFEKASMDVENPDYSEEILKGELAWIIYKNSVSIIKGAEFHVSLLSIAQLFDFAKDLQKEIYDDLQALHTDDPLTWDYVARRELEIESQTEEQPTTKQAKAVEVGRKEERCCAVYEEAVKTLPTEAMWKCYITFCLERFTKKSNSGFLRGKRLERTMTVFRKAHELKLLSECQYKQLSVSLLCYNFLREALEVAVAGTELFRDSGTMWQLKLQVLIESKSPDIAMLFEEAFVHLKPQVCLPLWISWAEWSEGAKSQEDTEAVFKKALLAVIGADSVTLKNKYLDWAYRSGGYKKARAVFKSLQESRPFSVDFFRKMIQFEKEQESCNMANIREYYERALREFGSADSDLWMDYMKEELNHPLGRPENCGQIYWRAMKMLQGESAEAFVAKHAMHQTGHL [UTP6]”, the “solubility change mitosis (log2)” value (HeLa Kyoto [1]) was 0.707 and the “solubility in G1/S (log2)” value (HeLa Kyoto [2]) was -2.05.
